For assay [1], the target named is T1, WT DR5 recombinant protein (IgG4-Fc tagged extracellular domain of human DR5) (human, UniProt O14763-1 56-210, biotinylated with EZ-Link Sulfo-NHS-SS-Biotin for BLI). The assay can be described thus: BLI. (Biolayer interferometry detects binding as a change in optical thickness at a sensor tip.)
Assay [2] addresses T1, WT DR5 recombinant protein (IgG4-Fc …). Description: ELISA.
Another assay concerns the target RKCAR DR5. Description: BLI.
The next assay deals with Monkey DR5. Description: BLI.
A further assay addresses Chimp DR5. Description: BLI.
The next assay concerns the target RKCSR DR5. The assay can be described thus: BLI.
For assay [3], the target named is T1, WT DR5 recombinant protein (IgG4-Fc …). The assay can be described thus: ELISA. The source holds these as a separate data set.
Assay [4] has the same target. Description: BLI. The source holds these as a separate data set.

B1: KMTR2 (antibody, V domains shown)
VH: QVQLVQSGAEMKKPGASVKVSCKTSGYTFTNYKINWVRQAPGQGLEWMGWMNPDTDSTGYPQKFQGRVTMTRNTSISTAYMELSSLRSEDTAVYYCARSYGSGSYYRDYYYGMDVWGQGTTVTVSS
VL: EIVLTQSPATLSLSPGERATLSCRASQSVSSYLAWYQQKPGQAPRLLIYDASNRATGIPARFSGSGSGTDFTLTISSLEPEDFAVYYCQQRSNWPLTFGGGTKVEIK
By Kd is commonly meant the constant that tells how readily two partners part at equilibrium. As to B1, the Kd was less than 0.001 nM in assay [1] and 0.088 nM in assay [2].

B2: Lexatumumab (antibody, V domains shown)
VH: EVQLVQSGGGVERPGGSLRLSCAASGFTFDDYGMSWVRQAPGKGLEWVSGINWNGGSTGYADSVKGRVTISRDNAKNSLYLQMNSLRAEDTAVYYCAKILGAGRGWYFDLWGKGTTVTVSS
VL: SSELTQDPAVSVALGQTVRITCQGDSLRSYYASWYQQKPGQAPVLVIYGKNNRPSGIPDRFSGSSSGNTASLTITGAQAEDEADYYCNSRDSSGNHVVFGGGTKLTVL
Turning to B2, the Kd is 0.266 nM with RKCAR DR5; 0.014 nM with Monkey DR5; less than 0.001 nM with Chimp DR5; 0.215 nM with RKCSR DR5; 0.032 nM in assay [3]; 0.519 nM in assay [1]. Also, the Kd in assay [4] is 0.0376 nM; in assay [2], 0.081 nM.

These data come from publication PMC8720280 (2021).
